Measured values taken from patent US20090081786A1, “Peptide sequences for modulation of protein kinase C” (priority 2006, published 2009).

Target: annexin V endogenous in CHO-K1 cells (Homo sapiens (Human)) (UniProt P08758)
Assay: co-immunoprecipitation from CHO cells stimulated with 10 nM PMA, FIG. 2

## δ-PKC endogenous in CHO-K1 cells (from UniProt P28867 1-674) (enzyme)
  fold increase in the amount of complex after PMA stimulation (against before stimulation): 4 fold
